Test results published in patent US20110300138A1 (published 2011).
Each block holds one binder with its values, some of them ahead of it.

Key:
[1] = biological target: T1, human TSH receptor (full length), coated on ELISA plate wells (human, UniProt P16473 22-764); experiment: ELISA, inhibition of M22 Fab-peroxidase (competitor) binding to TSHR coated wells; 1 µg/mL in assay buffer; mean ± SD
T1 construct: TSHR coated ELISA plate wells of the TRAb ELISA; also called thyroid stimulating hormone receptor

[2] = biological target: T1, human TSH receptor (full length), …; experiment: ELISA, inhibition of M22 Fab-peroxidase (competitor) binding to TSHR coated wells; 0.03 µg/mL in HBD serum; mean ± SD
[3] = biological target: T1, human TSH receptor (full length), …; experiment: ELISA, inhibition of M22 Fab-peroxidase (competitor) binding to TSHR coated wells; 0.03 µg/mL in assay buffer; mean ± SD
[4] = biological target: T1, human TSH receptor (full length), …; experiment: ELISA, inhibition of M22 Fab-peroxidase (competitor) binding to TSHR coated wells; 0.1 µg/mL in assay buffer; mean ± SD
[5] = biological target: T1, human TSH receptor (full length), …; experiment: ELISA, inhibition of M22 Fab-peroxidase (competitor) binding to TSHR coated wells; 0.01 µg/mL in assay buffer; mean ± SD
[6] = biological target: T1, human TSH receptor (full length), …; experiment: ELISA, inhibition of M22 Fab-peroxidase (competitor) binding to TSHR coated wells; 0.1 µg/mL in HBD serum; mean ± SD
[7] = biological target: T1, human TSH receptor (full length), …; experiment: ELISA, inhibition of M22 Fab-peroxidase (competitor) binding to TSHR coated wells; 0.01 µg/mL in HBD serum; mean ± SD
[8] = biological target: T1, human TSH receptor (full length), …; experiment: ELISA, inhibition of M22 Fab-peroxidase (competitor) binding to TSHR coated wells; 1 µg/mL in HBD serum; mean ± SD
[9] = biological target: T2, TSHR260-alkaline phosphatase (TSHR260-AP) (human, UniProt P05187 23-511); experiment: TSHR260-AP bridge ELISA, full length TSHR on wells; 250 µg/mL, diluted in HBD
T2 construct: Fusion of human TSHR amino acids 22-260 (construct codes 1-260, 1-21 being the leader) with secreted alkaline phosphatase, expressed in insect cells; In the ELISA the antibody bridges full length detergent-solubilised TSHR coated on the wells and TSHR260-AP in the liquid phase
Experimental: (§1) An ELISA was established based on the ability of divalent TSHR antibodies to bind with one antigen binding site to TSHR coated onto an ELISA plate well and with the other antigen binding site to TSHR260-AP in a liquid phase i.e. forming a bridge. TSHR in the form of full length detergent-solubilised receptor expressed in CHO cells was coated onto ELISA plate wells via a C-terminal antibody as described previously (Bolton J et al 1999 supra). In the assay 75 μL of start buffer (as described for TRAb ELISA; Bolton J, et al 1999 supra) and 75 μL of test sample (patient sera or monoclonal antibodies) were added to the ELISA plate wells coated with the full length detergent solubilised TSHR and incubated for 2 hours at room temperature with shaking (500 rpm). Then the contents of the wells were removed, the wells washed 3 times with wash buffer (50 mmol/L NaCl, 20 mmol/L Tris pH 7.8, 1% Triton X-100) followed by addition of […] of TSHR260-AP (diluted in wash buffer containing 0.2 g/L MgCl₂-6H₂O and 2 g/L BSA). After incubation for 1 hour at room temperature with shaking (500 rpm) the wells were emptied, washed (3 times) and 100 μL of p-nitrophenyl phosphate (pNpp) substrate (Europa Bioproducts Ltd, Ely, Cambridge UK) added and the plate incubated in the dark for 45 minutes. Thereafter 100 μL of stop solution (1 mol/L NaOH) was added and the absorbance read at 405 nm in an ELISA plate reader. […] In some experiments solubilised preparations of recombinant TSHR containing mutation R255D expressed in CHO cells were used to coat the ELISA plate wells.
(§2) TSHR260-AP is a fusion protein consisting of a fragment of human TSHR (amino acids 22-260) e with alkaline phosphatase. […] Mean absorbance = mean of duplicate determinations.

[10] = biological target: T2, TSHR260-alkaline phosphatase …; experiment: TSHR260-AP bridge ELISA, full length TSHR on wells; 0.005 µg/mL, diluted in HBD
Experimental: as §1, §2

[11] = biological target: T2, TSHR260-alkaline phosphatase …; experiment: TSHR260-AP bridge ELISA, full length TSHR on wells; 10 µg/mL, diluted in HBD
Experimental: as §1, §2

[12] = biological target: T2, TSHR260-alkaline phosphatase …; experiment: TSHR260-AP bridge ELISA, full length TSHR on wells; 10 µg/mL, diluted in assay buffer
Experimental: as §1, §2

[13] = biological target: T2, TSHR260-alkaline phosphatase …; experiment: TSHR260-AP bridge ELISA, full length TSHR on wells; 0.1 µg/mL, diluted in HBD
Experimental: as §1, §2

[14] = biological target: T2, TSHR260-alkaline phosphatase …; experiment: TSHR260-AP bridge ELISA, full length TSHR on wells; 0.1 µg/mL, diluted in assay buffer
Experimental: as §1, §2

[15] = biological target: T2, TSHR260-alkaline phosphatase …; experiment: TSHR260-AP bridge ELISA, full length TSHR on wells; 0.005 µg/mL, diluted in assay buffer
Experimental: as §1, §2

[16] = biological target: T2, TSHR260-alkaline phosphatase …; experiment: TSHR260-AP bridge ELISA, full length TSHR on wells; 250 µg/mL, diluted in assay buffer
Experimental: as §1, §2

B1: K1-18 IgG (antibody, V domains shown)
VH: EVQLVQSGAEVKKPGESLKISCKGSGYSFTNYWIGWVRQMPGKGLEWMGIIYPYDSDTRYSPSFEGQVTISADKSIRTAYLHWSSLKASDTAMYYCVRPRDGSYPYDAFDIWGQGTMVTVSS
VL: EIVLTQSPGTLSLSPGERATLSCRASQSVSNNYLAWYQQKPGQAPRLLIYGASSRATGIPDRFSGSGSGTDFTLTISRLEPEDFAVYYCQHCGSSLRAFGQGTKVEIKR
notes: Human IgG1 with kappa light chains, purified from hetero-hybridoma culture supernatant; also called human monoclonal autoantibody to the TSHR with TSH agonist (stimulating) activity
Inhibition of binding (%) [1]: 96.3%
Inhibition of binding (%) [2]: 13.6%
Inhibition of binding (%) [3]: 35.7%
Inhibition of binding (%) [4]: 71.9%
Inhibition of binding (%) [5]: 8.9%
Inhibition of binding (%) [6]: 56.3%
Inhibition of binding (%) [7]: -4%
Inhibition of binding (%) [8]: 94.6%

B2: K1-18 Fab (Fab, V domains shown)
VH: B1 VH
VL: B1 VL
notes: residue limits as in claim 65
Mean absorbance at 405 nm [9]: -0.007 absorbance at 405 nm
Mean absorbance at 405 nm [10]: -0.011 absorbance at 405 nm
Mean absorbance at 405 nm [11]: -0.002 absorbance at 405 nm
Mean absorbance at 405 nm [12]: 0.008 absorbance at 405 nm
Mean absorbance at 405 nm [13]: -0.011 absorbance at 405 nm
Mean absorbance at 405 nm [14]: 0.002 absorbance at 405 nm
Mean absorbance at 405 nm [15]: -0.004 absorbance at 405 nm
Mean absorbance at 405 nm [16]: 0.049 absorbance at 405 nm

B3: K1-18 IgG (antibody, V domains shown)
VH: B1 VH
VL: B1 VL
notes: Human IgG1 kappa purified from hetero-hybridoma supernatant
Mean absorbance at 405 nm [9]: 0.722 absorbance at 405 nm
Mean absorbance at 405 nm [10]: 0.013 absorbance at 405 nm
Mean absorbance at 405 nm [11]: 0.66 absorbance at 405 nm
Mean absorbance at 405 nm [12]: 0.8 absorbance at 405 nm
Mean absorbance at 405 nm [13]: 0.292 absorbance at 405 nm
Mean absorbance at 405 nm [14]: 0.545 absorbance at 405 nm
Mean absorbance at 405 nm [15]: 0.136 absorbance at 405 nm
Mean absorbance at 405 nm [16]: 1.2 absorbance at 405 nm

B5: K1-70 Fab (Fab, V domains shown)
VH: EVQLVQSGAEVKKPGQSLKISCKASGYSLTDNWIGWVRQKPGKGLEWMGIIYPGDSDTRYSPSFQGQVTISADKSINTAYLQWSSLKASDTAIYYCVGLDWNYNPLRYWGPGTLVTVSS
VL: QSVLTQPPSVSAAPGQKVTISCSGSSSDIGSNYVSWYQQFPGTAPKLLIYDNNKRPSAIPDRFSGSKSGTSATLGITGLQTGDEADYYCGTWDSRLGIAVFGGGTQLTVLG
notes: residue limits as in claims 56 and 57
Mean absorbance at 405 nm [9]: 0.02 absorbance at 405 nm
Mean absorbance at 405 nm [10]: -0.01 absorbance at 405 nm
Mean absorbance at 405 nm [11]: 0.018 absorbance at 405 nm
Mean absorbance at 405 nm [12]: 0.033 absorbance at 405 nm
Mean absorbance at 405 nm [13]: -0.01 absorbance at 405 nm
Mean absorbance at 405 nm [14]: 0.007 absorbance at 405 nm
Mean absorbance at 405 nm [15]: -0.004 absorbance at 405 nm
Mean absorbance at 405 nm [16]: 0.056 absorbance at 405 nm

B7: K1-70 Fab (Fab, V domains shown)
VH: B5 VH
VL: B5 VL
notes: also called Fab of K1-70
Inhibition of binding (%) [1]: 97.2%
Inhibition of binding (%) [2]: 58.8%
Inhibition of binding (%) [3]: 82%
Inhibition of binding (%) [4]: 94.6%
Inhibition of binding (%) [5]: 57.5%
Inhibition of binding (%) [6]: 86%
Inhibition of binding (%) [7]: 27.9%
Inhibition of binding (%) [8]: 96.1%

Now from value to binder:

Inhibition of binding (%) [1]: 98.1%
Inhibition of binding (%) [2]: 34.5%
Inhibition of binding (%) [3]: 71.8%
Inhibition of binding (%) [4]: 93%
Inhibition of binding (%) [5]: 28%
Inhibition of binding (%) [6]: 69.7%
Inhibition of binding (%) [7]: 9.2%
Inhibition of binding (%) [8]: 96.4%
B4: K1-70 IgG (antibody, V domains shown)
VH: B5 VH
VL: B5 VL
notes: Human IgG1 with lambda light chains, purified from hetero-hybridoma culture supernatant

Mean absorbance at 405 nm [9]: 0.817 absorbance at 405 nm
Mean absorbance at 405 nm [10]: 0.045 absorbance at 405 nm
Mean absorbance at 405 nm [11]: 0.738 absorbance at 405 nm
Mean absorbance at 405 nm [12]: 0.885 absorbance at 405 nm
Mean absorbance at 405 nm [13]: 0.44 absorbance at 405 nm
Mean absorbance at 405 nm [14]: 0.713 absorbance at 405 nm
Mean absorbance at 405 nm [15]: 0.085 absorbance at 405 nm
Mean absorbance at 405 nm [16]: 1.13 absorbance at 405 nm
B6: K1-70 IgG (antibody, V domains shown)
VH: B5 VH
VL: B5 VL
notes: Human IgG1 lambda purified from hetero-hybridoma supernatant
